{"source": "paper PMC10890041", "biological_target": "B8(RH)4 ligand: eightfold polymerized B domain from the native Protein A, C-terminally fused with th", "assay": "static batch adsorption on an affinity membrane; Protein A ligand coupled by NHS/EDC (protocol I) to ALA-functionalized ALA@Au_PES200 membrane (6 mm); Trastuzumab 0-0.5 mg/mL in PBS pH 7.4, 1 h, 25 °C, 1000 rpm; supernatant UV-vis at 280 nm, ligand load by direct BCA"}
{"substance": "Trastuzumab (antibody)", "values": [{"measurement": "stoichiometry N (antibody per Protein A ligand)", "result": 3}]}
